The chains are these.
B1: scFv; the commonest letter at each place (parent)
chain 1: EVKLDETGGGLVQPGRPMKLSCVASGFTFSDYWMNWVRQSPEKGLEWVAQIRNKPYNYETYYSDSVKGRFTISRDDSKSSVYLQMNNLRVEDMGIYYCTGSYYGMDYWGQGTSVTVS
chain 2: DVVMTQTPLSLPVSLGDQASISCRSSQSLVHSNGNTYLRWYLQKPGQSPKVLIYKVSNRFSGVPDRFSGSGSGTDFTLKISRVEAEDLGVYFCSQSTHVPWTFGGGTKLEIK

A value given as a limit tells only on which side of the number the result lay.

The variants in the data set “fluorescein” derive from B1. Nature of the data set: Kd (Tite-Seq). Conditions: with fluorescein; format: scFv 4-4-20, heavy + light.
The variants in data set [1] derive from B1. Briefly: yeast surface expression (ratio to wild type); higher = more expressed. Conditions: format: scFv 4-4-20, heavy + light.

Regarding chain 1 Y103Q M105T, the Kd in the data set with fluorescein was at least 10 µM. For the same variant, the yeast surface expression in data set [1] was found to be 0.874.
Taken in the same sequence, the figures for chain 1 Y103Q M105G were at least 10 µM and 0.906.
Consider chain 1 Y103Q M105Q, for which, in the data set with fluorescein, the Kd amounted to 4.37 µM. For the same variant, the yeast surface expression in data set [1] came to 1.14.
Turning to chain 1 Y103S D106K, the Kd in the data set with fluorescein is at least 10 µM. In addition, in data set [1], the yeast surface expression worked out at 0.311.
On the same counts, the results for chain 1 Y103S D106H are at least 10 µM and 0.542.
In the case of chain 1 Y103N G104T Y107K, in the data set with fluorescein, the Kd is at least 10 µM. In data set [1], the yeast surface expression was found to be 0.619.
Taken in the same sequence, the figures for chain 1 Y107Q W108Q were at least 10 µM and 0.385.
On to chain 1 Y103M D106G, for which, in the data set with fluorescein, the Kd was at least 10 µM. Moreover, the yeast surface expression in data set [1] was determined as 0.479.
With chain 1 Y107V W108R, the Kd with fluorescein is at least 10 µM. In addition, in data set [1], the yeast surface expression amounted to 0.492.
Taken in the same sequence, the figures for chain 1 Y107V W108D were at least 10 µM and 0.425.
On the same counts, the results for chain 1 Y107V W108Y are 0.000688 µM and 0.724.
Taken in the same sequence, the figures for chain 1 Y107E G109E were at least 10 µM and 0.288.
On to chain 1 Y107G W108L G109E, for which the Kd with fluorescein was at least 10 µM. The yeast surface expression in data set [1] came to 0.331.
As to chain 1 Y103Q W108N, the Kd with fluorescein was at least 10 µM. Besides, in data set [1], the yeast surface expression amounted to 0.415.
On the same counts, the results for chain 1 Y103Q W108A are 0.712 µM and 0.644.
On the same counts, the results for chain 1 Y107L G109R are at least 10 µM and 0.343.
As for chain 1 Y107L G109V, the Kd with fluorescein is at least 10 µM. For the same variant, the yeast surface expression in data set [1] was determined as 0.298.
On the same counts, the results for chain 1 Y103M D106F Y107G are at least 10 µM and 0.265.
Taken in the same sequence, the figures for chain 1 Y107N G109P were at least 10 µM and 0.28.
chain 1 Y107N G109K: the Kd with fluorescein was at least 10 µM. Moreover, the yeast surface expression in data set [1] turned out to be 0.306.
Consider chain 1 Y107N G109S, for which the Kd with fluorescein came to 0.0391 µM. In addition, in data set [1], the yeast surface expression is 0.836.
Taken in the same sequence, the figures for chain 1 Y103M G104M M105L were at least 10 µM and 0.562.
Turning to chain 1 Y103M Y107W, in the data set with fluorescein, the Kd came out at 0.00204 µM. Moreover, the yeast surface expression in data set [1] turned out to be 0.871.
Consider chain 1 Y103S G109T, for which the Kd with fluorescein was at least 10 µM. Further, in data set [1], the yeast surface expression amounted to 0.469.
For the variant chain 1 Y103M G109W, the Kd with fluorescein was at least 10 µM. In addition, in data set [1], the yeast surface expression was 0.221.
Taken in the same sequence, the figures for chain 1 Y103M G109Y were at least 10 µM and 0.265.
Turning to chain 1 Y107K W108Q, in the data set with fluorescein, the Kd is at least 10 µM. Moreover, the yeast surface expression in data set [1] came to 0.659.
Taken in the same sequence, the figures for chain 1 Y107K W108A were at least 10 µM and 0.575.
Taken in the same sequence, the figures for chain 1 Y103M M105N were 1.14 µM and 1.52.
On the same counts, the results for chain 1 Y103T G104Q are at least 10 µM and 0.9.
Consider chain 1 Y103T G104W, for which the Kd with fluorescein was at least 10 µM. Also, the yeast surface expression in data set [1] is 0.534.
Taken in the same sequence, the figures for chain 1 Y103L D106P were at least 10 µM and 0.559.
On the same counts, the results for chain 1 Y103L D106I are at least 10 µM and 0.764.
Taken in the same sequence, the figures for chain 1 Y103P Y107D were at least 10 µM and 0.617.
With chain 1 Y103P Y107E, in the data set with fluorescein, the Kd was at least 10 µM. The yeast surface expression in data set [1] was found to be 0.763.
Take chain 1 Y103N M105G Y107M: the dissociation constant Kd with fluorescein is at least 10 µM. Also, the yeast surface expression in data set [1] turned out to be 0.836.
Taken in the same sequence, the figures for chain 1 Y103N G104T were at least 10 µM and 0.851.
On the same counts, the results for chain 1 Y103N G104Q are at least 10 µM and 0.766.
Taken in the same sequence, the figures for chain 1 Y103N G104F were at least 10 µM and 0.839.
As for chain 1 Y103N G104P, the Kd in the data set with fluorescein was at least 10 µM. For the same variant, the yeast surface expression in data set [1] came to 0.478.
On to chain 1 Y103L G109S, for which, in the data set with fluorescein, the equilibrium dissociation constant (Kd) was 0.167 µM. For the same variant, in data set [1], the yeast surface expression is 0.855.
On the same counts, the results for chain 1 Y103L G109I are at least 10 µM and 0.206.
chain 1 Y103L G109M: the Kd in the data set with fluorescein is at least 10 µM. Moreover, the yeast surface expression in data set [1] amounted to 0.208.
Taken in the same sequence, the figures for chain 1 Y107L W108L were 0.000939 µM and 0.676.
chain 1 Y107L W108D: in the data set with fluorescein, the Kd was at least 10 µM. In data set [1], the yeast surface expression stood at 0.326.
For chain 1 Y103V G104W, the Kd with fluorescein was at least 10 µM. Moreover, in data set [1], the yeast surface expression was found to be 0.419.
Taken in the same sequence, the figures for chain 1 Y103L G104Y were at least 10 µM and 0.604.
In the case of chain 1 Y103V W108Y, in the data set with fluorescein, the Kd amounted to 0.0011 µM. Besides, the yeast surface expression in data set [1] came to 0.619.
Take chain 1 Y103Q G104N: in the data set with fluorescein, the Kd is at least 10 µM. Moreover, in data set [1], the yeast surface expression came to 0.905.
Taken in the same sequence, the figures for chain 1 Y103T W108S were at least 10 µM and 0.244.
In the case of chain 1 Y103T W108P, the Kd with fluorescein was at least 10 µM. Moreover, the yeast surface expression in data set [1] came to 0.468.
chain 1 Y103T M105H: the Kd in the data set with fluorescein was at least 10 µM. Moreover, the yeast surface expression in data set [1] stood at 0.849.
chain 1 Y103R M105K: in the data set with fluorescein, the Kd turned out to be 0.00493 µM. Further, the yeast surface expression in data set [1] worked out at 0.768.
Take chain 1 Y107F G109E: the Kd with fluorescein was at least 10 µM. Moreover, the yeast surface expression in data set [1] turned out to be 0.259.
Taken in the same sequence, the figures for chain 1 Y107F G109N were at least 10 µM and 0.555.
Taken in the same sequence, the figures for chain 1 Y103P were at least 10 µM and 0.791.
chain 1 Y103Q: in the data set with fluorescein, the Kd was found to be 0.0199 µM. Also, in data set [1], the yeast surface expression is 1.33.
Turning to chain 1 Y103V, the Kd with fluorescein stood at 0.0158 µM. The yeast surface expression in data set [1] came out at 0.701.
On to chain 1 Y103N, for which the Kd in the data set with fluorescein amounted to 0.00708 µM. Besides, the yeast surface expression in data set [1] came out at 1.17.
Taken in the same sequence, the figures for chain 1 Y103R were 0.00444 µM and 0.971.
On the same counts, the results for chain 1 Y103S are 0.0318 µM and 1.05.
On the same counts, the results for chain 1 Y103W are 0.228 µM and 0.862.
With chain 1 Y103T, the Kd in the data set with fluorescein came out at 2.35 µM. For the same variant, the yeast surface expression in data set [1] worked out at 0.896.
With chain 1 Y103M, the Kd with fluorescein was 0.0015 µM. Moreover, the yeast surface expression in data set [1] came to 1.27.
On the same counts, the results for chain 1 Y107I G109Q are at least 10 µM and 0.442.
On the same counts, the results for chain 1 Y107I G109K are at least 10 µM and 0.234.
Regarding chain 1 Y107T G109C, the Kd in the data set with fluorescein is at least 10 µM. Further, the yeast surface expression in data set [1] was 0.278.
On the same counts, the results for chain 1 Y103W G104F M105E are at least 10 µM and 0.578.
Consider chain 1 Y103W G104P, for which the Kd in the data set with fluorescein was at least 10 µM. In data set [1], the yeast surface expression was determined as 1.
Taken in the same sequence, the figures for chain 1 Y107V G109E were at least 10 µM and 0.339.
As to chain 1 Y103W W108S, the Kd with fluorescein is at least 10 µM. Moreover, the yeast surface expression in data set [1] came out at 0.526.
On the same counts, the results for chain 1 Y103W W108L are 0.00166 µM and 0.629.
Take chain 1 Y107S W108D: the Kd with fluorescein is at least 10 µM. The yeast surface expression in data set [1] came to 0.322.
For the variant chain 1 Y107S W108S, the Kd with fluorescein is at least 10 µM. The yeast surface expression in data set [1] is 0.484.
Regarding chain 1 Y107M G109K, the Kd with fluorescein is at least 10 µM. Besides, the yeast surface expression in data set [1] turned out to be 0.42.
On the same counts, the results for chain 1 Y107M G109Q are at least 10 µM and 0.353.
Regarding chain 1 Y103M M105H D106Y, the Kd in the data set with fluorescein was at least 10 µM. The yeast surface expression in data set [1] was determined as 0.63.
As to chain 1 Y103L W108D, the Kd with fluorescein was at least 10 µM. For the same variant, the yeast surface expression in data set [1] was 0.501.
For the variant chain 1 Y103P M105K, the Kd in the data set with fluorescein is at least 10 µM. The yeast surface expression in data set [1] is 0.785.
On the same counts, the results for chain 1 Y103N D106N W108T are at least 10 µM and 0.736.
On the same counts, the results for chain 1 Y103W G109S are at least 10 µM and 0.653.
On to chain 1 Y103W G109A, for which, in the data set with fluorescein, the Kd was at least 10 µM. Besides, the yeast surface expression in data set [1] was found to be 0.557.

Values taken from the FLAb antibody collection (doi:10.7554/elife.23156).
